This assay addresses human MN protein, entire extra-cellular domain with a C-terminal histag, expressed in HKB-11 cells (human) (UniProt Q16790). Put plainly: method not restated (Biacore by context).

The substance “MN antibody G250, a humanized IgG1 antibody (Wilex)” came in with an equilibrium dissociation constant (Kd) of 5.3 nM.

The values above are taken from US20100129315A1.
